In US12583895B2, “Polypeptides for restoring endothelial function and methods of use thereof” (Vanderbilt University, priority 2019, dated 2026):
Non-standard residues stand in square brackets, D forms with d. No end group written: not given here. pS = N[C@@H](COP(=O)(O)O)C(=O)O

Assays:
[1] = biological target: T1, p38 MAPK γ isoform (Homo sapiens, UniProt P53778); assay: SelectScreen kinase profiling; assay type: biochemical; settings: NiPp 100 μM
T1 sequence (P53778 1-367): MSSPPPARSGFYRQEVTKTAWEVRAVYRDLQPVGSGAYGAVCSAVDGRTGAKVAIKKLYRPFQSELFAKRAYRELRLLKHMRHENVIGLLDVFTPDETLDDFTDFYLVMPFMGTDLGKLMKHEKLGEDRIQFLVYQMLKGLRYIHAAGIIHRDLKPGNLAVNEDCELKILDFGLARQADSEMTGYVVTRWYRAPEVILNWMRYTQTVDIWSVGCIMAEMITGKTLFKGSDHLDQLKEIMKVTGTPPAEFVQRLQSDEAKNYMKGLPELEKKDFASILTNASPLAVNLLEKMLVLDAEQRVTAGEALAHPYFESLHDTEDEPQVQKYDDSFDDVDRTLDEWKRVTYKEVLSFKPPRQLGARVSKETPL
Description: (§1) Kinase profiling. NiPp was dissolved in DMSO, screened at a single concentration of 100 μM using in vitro kinase assays (SelectScreen Kinase Profiling Service; ThermoFisher Scientific, Madison WI) including the Z'LYTE and Adapta kinase activity assays and the LanthaScreen Eu Kinase Binding Assay). Candidate interactions were predicted using STRING Version 11 (www.string-db-org) with the human database at confidence=0.7.
(§2) Since NiPp treatment was associated with decreased phosphorylation of p38 MAPK in RA, a mechanism of NiPp function can kinase inhibition. Therefore, a kinase profiling assay was performed to determine the effect of NiPp on the activity of a panel of kinases in vitro. The top two kinases inhibited by NiPp were MSK1 and p38 MAPKα. Inhibition to the p38 MAPKα isoform appeared to be specific as inhibition by NiPp to the other isoforms (β, δ, and γ) in the kinaseprofiling screen were only at 5, 3, and 3% respectively. Despite high sequence homology, the isoforms have difference in tissue expression, upstream kinase activators and downstream substrates. The p38 MAPKα isoform, initially identified as a protein that underwent phosphorylation in response to endotoxin treatment and hyperosmolarity shock, plays a role in endothelial dysfunction in that inhibition of this isoform leads to improved endothelial function in animal models of cardiovascular diseases including cardiac hypertrophy, balloon injury, salt/fat induced hypertension and in hypercholesterolemic patients. The α-isoform is also a key regulator of pro-inflammatory cytokine production and itself can be activated by IL1-β. MSK1, a downstream kinase of the p38 MAPK activation (FIG. 19), has complex cell-dependent roles in inflammatory responses. In endothelial cells, MSK1 promotes CREB activation in response to TNFα.

[2] = biological target: p38 MAPK β isoform (Homo sapiens, UniProt Q15759); assay: SelectScreen kinase profiling; assay type: biochemical; settings: NiPp 100 μM
p38 MAPK β isoform, sequence (Q15759 whole entry, canonical isoform): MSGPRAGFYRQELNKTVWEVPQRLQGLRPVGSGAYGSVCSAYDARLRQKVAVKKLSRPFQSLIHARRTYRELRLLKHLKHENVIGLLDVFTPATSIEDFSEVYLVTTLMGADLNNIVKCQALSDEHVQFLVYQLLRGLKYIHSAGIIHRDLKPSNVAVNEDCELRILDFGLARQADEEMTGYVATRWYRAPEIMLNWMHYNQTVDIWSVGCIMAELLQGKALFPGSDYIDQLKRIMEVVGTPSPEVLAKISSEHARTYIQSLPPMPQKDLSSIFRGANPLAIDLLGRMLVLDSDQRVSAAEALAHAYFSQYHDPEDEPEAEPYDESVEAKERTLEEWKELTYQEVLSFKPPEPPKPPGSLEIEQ
Description: as §1, §2

[3] = biological target: T2, p38 MAPK δ isoform (Homo sapiens, UniProt O15264); assay: SelectScreen kinase profiling; assay type: biochemical; settings: NiPp 100 μM
T2 sequence (O15264 1-365): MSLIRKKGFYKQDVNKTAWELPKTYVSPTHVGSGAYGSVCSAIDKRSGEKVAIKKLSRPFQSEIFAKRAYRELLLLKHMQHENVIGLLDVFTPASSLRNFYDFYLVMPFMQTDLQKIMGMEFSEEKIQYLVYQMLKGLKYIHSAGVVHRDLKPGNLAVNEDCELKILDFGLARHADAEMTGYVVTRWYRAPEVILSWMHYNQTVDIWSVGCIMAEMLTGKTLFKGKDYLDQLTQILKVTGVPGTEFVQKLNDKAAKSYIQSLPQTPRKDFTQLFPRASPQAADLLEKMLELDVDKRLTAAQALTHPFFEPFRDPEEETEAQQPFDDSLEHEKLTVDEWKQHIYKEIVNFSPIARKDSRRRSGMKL
Description: as §1, §2

[4] = test system: rat aorta; assay: Endothelial-dependent relaxation of rat aorta after endoplasmic reticulum stress (tunicamycin) injury; assay type: cell-based; settings: NiPp 100 and 500 μM, 2 hours, room temperature
Description: (§3) Freshly isolated rat aorta was treated with tunicamycin (TM) to induce injury in the absence or presence of NiPp (100 and 500 μM) for 2 hours at room temperature. To determine the effect of injury on endothelial function, phenylephrine (PE)-precontracted tissues were treated with carbachol (CCH; 10^−8 to 10^−5M) and the percent relaxation was determined as a change to the maximal PE-induced contraction. Data are reported as mean responses±standard deviation. n=6. *p<0.05, two-way ANOVA.
Muscle bath studies. Tissue rings were suspended in bicarbonate buffer in the muscle bath at 37° C., equilibrated with 95% O2/5% CO2 at 37° C. for 1 hour. Rings were manually stretched to 3 grams of tension, followed by a resting tension of 1 gram for an additional 1 hour to produce a maximal force-tension relationship. […] Relaxation was calculated as percent change in stress compared to the maximal PE-induced contraction (set as 100%).
as §3, with “Data are reported as mean responses±standard deviation. n=6. *p<0.05, two-way ANOVA.” left out

YARAAARQARASPAARRA(pS)AILPG (YARAAARQARASPAARRA[pS]AILPG) [NiPp, Cell-permeant phosphopeptide mimetic of Niban: transduction domain … conjugated to the region surrounding serine 602 of Niban]
% inhibition of p38 MAPK γ isoform [1]: 3% | % inhibition of p38 MAPK β isoform [2]: 5% | % inhibition of p38 MAPK δ isoform [3]: 3% | endothelial function (percent relaxation to carbachol) after tunicamycin injury [4]: restored
